B1: DbfQ, processed (residues 32 to 135, excluding the secretion signal), 6×His tag cleaved (natural protein)
chain: DNKVRDWEQGSYREGTQIEIDEDQDDVYRAVQKGLIRPFAELYATVDQQLNGRLIKVELDEDDDEWIYELKLVYDNQVFRVEYNAATLELMSIRGRNVIRAIKK
modifications: in the MST experiments only: covalently labeled with an amine-reactive Red-NHS dye
notes: DbfQ, small periplasmic PepSY-domain protein of Vibrio cholerae (135-amino-acid precursor, gene vc_1637); processed form, residues 32 to 135 without the secretion signal; also called cleaved DbfQ; DbfQ (6×His tag-cleaved)
B2: DbfS sensory domain, DbfS^SD-6×His (residues 43 to 171) (domain or fragment)
chain: NLIHQYLLEDVQNQLQLSMDEITANLEANPQGQLTLTTRLADPRFTQPYSGLYWSATLGDQTLRSRSLWDRFLTEETHVHGTIYLGAKEESLIVLKRTVYLPEFSQPITITIGLDDAPLKATLQRVSKE
notes: DbfS, sensor histidine kinase of the DbfRS two-component system of Vibrio cholerae (gene vc_1639); periplasmic sensory domain, residues 43 to 171; The vector is pET-15b; also called unlabeled DbfS; VC_1639; source: E. coli BL21 (DE3), pET-15b, purified (Ni-NTA)

Columns and labels:
[1] = target: B2; assay: MST; Red-NHS-labeled DbfQ constant at 20 nM, unlabeled DbfS 0.49 nM to 16,105 nM; buffer M (20 mM MES, 100 mM NaCl, 10% glycerol) with 0.05% Tween 20, pH 7.5, 25 °C; 1:1 binding model (PALMIST); conditions: both partners purified
[2] = target: B1; assay: MST; titration to saturation for stoichiometry: DbfQ-NHS 100 nM, unlabeled DbfS 0 nM to 40,000 nM, 25 °C; conditions: both partners purified

| Binder | Kd [1] | stoichiometry N [2] |
| --- | --- | --- |
| B1 | 30 nM | – |
| B2 | – | 1 |
